Assay results from the supplement of paper PMC11316812.
± gives the standard deviation of the averaged measurements.

Tests used:
MCF7 = test: percentage of EdU-negative (G0-arrested) nuclei per well, 72 h; higher = more G0 arrest; details: reference: sequence is the full UniProt precursor, the tested protein was the secreted form or ectodomain
hTERT-HMEC = test: as above; details: reference: sequence is the full UniProt precursor, the tested protein was the secreted form or ectodomain
[1] = protein concentration 0.0225 µM
[2] = protein concentration 0.02175 µM
[3] = protein concentration 0.2175 µM
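Further: secreted proteins added to cultured cells, EdU pulse at the end, nuclei found by Hoechst imaging, EdU status from nuclear versus surrounding ring intensity ratio, PBS as neutral control.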

## MLLLINVILTLWVSCANGQVKPCDFPDIKHGGLFHENMRRPYFPVAVGKYYSYYCDEHFETPSGSYWDYIHCTQNGWSPAVPCLRKCYFPYLENGYNQNYGRKFVQGNSTEVACHPGYGLPKAQTTVTCTEKGWSPTPRCIRVRTCSKSDIEIENGFISESSSIYILNKEIQYKCKPGYATADGNSSGSITCLQNGWSAQPICINSSEKCGPPPPISNGDTTSFLLKVYVPQSRVEYQCQPYYELQGSNYVTCSNGEWSEPPRCIHPCIITEENMNKNNIKLKGRSDRKYYAKTGDTIEFMCKLGYNANTSILSFQAVCREGIVEYPRCE
MCF7; [1]
  percentage of EdU-negative: 28 ± 0.75%
MCF7; protein concentration 0.225 µM
  percentage of EdU-negative: 29.4 ± 0.63%
hTERT-HMEC; [1]
  percentage of EdU-negative: 5.2 ± 0.45%
hTERT-HMEC; protein concentration 0.225 µM
  percentage of EdU-negative: 5.74 ± 0.65%

## MLLLLLPLLWGRERAEGQTSKLLTMQSSVTVQEGLCVHVPCSFSYPSHGWIYPGPVVHGYWFREGANTDQDAPVATNNPARAVWEETRDRFHLLGDPHTKNCTLSIRDARRSDAGRYFFRMEKGSIKWNYKHHRLSVNVTALTHRPNILIPGTLESGCPQNLTCSVPWACEQGTPPMISWIGTSVSPLDPSTTRSSVLTLIPQPQDHGTSLTCQVTFPGASVTTNKTVHLNVSYPPQNLTMTVFQGDGTVSTVLGNGSSLSLPEGQSLRLVCAVDAVDSNPPARLSLSWRGLTLCPSQPSNPGVLELPWVHLRDAAEFTCRAQNPLGSQQVYLNVSLQSKATSGVTQGVVGGAGATALVFLSFCVIFVVVRSCRKKSARPAAGVGDTGIEDANAVRGSASQGPLTEPWAEDSPPDQPPPASARSSVGEGELQYASLSFQMVKPWDSRGQEATDTEYSEIKIHR [Q9Y336]
MCF7; [1]
  percentage of EdU-negative: 26.3 ± 0.23%
MCF7; protein concentration 0.225 µM
  percentage of EdU-negative: 30.4 ± 0.4%
hTERT-HMEC; [1]
  percentage of EdU-negative: 5.01 ± 0.61%
hTERT-HMEC; protein concentration 0.225 µM
  percentage of EdU-negative: 4.21 ± 0.26%

## MLLLLTLALLGGPTWAGKMYGPGGGKYFSTTEDYDHEITGLRVSVGLLLVKSVQVKLGDSWDVKLGALGGNTQEVTLQPGEYITKVFVAFQAFLRGMVMYTSKDRYFYFGKLDGQISSAYPSQEGQVLVGIYGQYQLLGIKSIGFEWNYPLEEPTTEPPVNLTYSANSPVGR [Q96DA0]
MCF7; [1]
  percentage of EdU-negative: 25.49 ± 0.17%
MCF7; protein concentration 0.225 µM
  percentage of EdU-negative: 24.3 ± 2.2%
hTERT-HMEC; [1]
  percentage of EdU-negative: 5.62 ± 0.12%
hTERT-HMEC; protein concentration 0.225 µM
  percentage of EdU-negative: 9.31 ± 0.28%

## MLLLPFQLLAVLFPGGNSEHAFQGPTSFHVIQTSSFTNSTWAQTQGSGWLDDLQIHGWDSDSGTAIFLKPWSKGNFSDKEVAELEEIFRVYIFGFAREVQDFAGDFQMKYPFEIQGIAGCELHSGGAIVSFLRGALGGLDFLSVKNASCVPSPEGGSRAQKFCALIIQYQGIMETVRILLYETCPRYLLGVLNAGKADLQRQVKPEAWLSSGPSPGPGRLQLVCHVSGFYPKPVWVMWMRGEQEQQGTQLGDILPNANWTWYLRATLDVADGEAAGLSCRVKHSSLEGQDIILYWRNPTSIGSIVLAIIVPSLLLLLCLALWYMRRRSYQNIP
MCF7; [1]
  percentage of EdU-negative: 25.9 ± 0.97%
MCF7; protein concentration 0.225 µM
  percentage of EdU-negative: 24.2 ± 1.6%
hTERT-HMEC; [1]
  percentage of EdU-negative: 5.01 ± 0.84%
hTERT-HMEC; protein concentration 0.225 µM
  percentage of EdU-negative: 6.06 ± 0.84%

## MLLLVTSLLLCELPHPAFLLIPEKSDLRTVAPASSLNVRFDSRTMNLSWDCQENTTFSKCFLTDKKNRVVEPRLSNNECSCTFREICLHEGVTFEVHVNTSQRGFQQKLLYPNSGREGTAAQNFSCFIYNADLMNCTWARGPTAPRDVQYFLYIRNSKRRREIRCPYYIQDSGTHVGCHLDNLSGLTSRNYFLVNGTSREIGIQFFDSLLDTKKIERFNPPSNVTVRCNTTHCLVRWKQPRTYQKLSYLDFQYQLDVHRKNTQPGTENLLINVSGDLENRYNFPSSEPRAKHSVKIRAADVRILNWSSWSEAIEFGSDDGNLGSVYIYVLLIVGTLVCGIVLGFLFKRFLRIQRLFPPVPQIKDKLNDNHEVEDEIIWEEFTPEEGKGYREEVLTVKEIT
MCF7; [1]
  percentage of EdU-negative: 23.5 ± 1.9%
MCF7; protein concentration 0.225 µM
  percentage of EdU-negative: 25.3 ± 2.3%
hTERT-HMEC; [1]
  percentage of EdU-negative: 5.11 ± 0.35%
hTERT-HMEC; protein concentration 0.225 µM
  percentage of EdU-negative: 4.81 ± 0.71%

## MLLPKKMKLLLFLVSQMAILALFFHMYSHNISSLSMKAQPERMHVLVLSSWRSGSSFVGQLFGQHPDVFYLMEPAWHVWMTFKQSTAWMLHMAVRDLIRAVFLCDMSVFDAYMEPGPRRQSSLFQWENSRALCSAPACDIIPQDEIIPRAHCRLLCSQQPFEVVEKACRSYSHVVLKEVRFFNLQSLYPLLKDPSLNLHIVHLVRDPRAVFRSRERTKGDLMIDSRIVMGQHEQKLKKEDQPYYVMQVICQSQLEIYKTIQSLPKALQERYLLVRYEDLARAPVAQTSRMYEFVGLEFLPHLQTWVHNITRGKGMGDHAFHTNARDALNVSQAWRWSLPYEKVSRLQKACGDAMNLLGYRHVRSEQEQRNLLLDLLSTWTVPEQIH [Q8NCG5]
MCF7; protein concentration 0.006 µM
  percentage of EdU-negative: 26 ± 0.23%
MCF7; protein concentration 0.06 µM
  percentage of EdU-negative: 29.1 ± 1.1%
hTERT-HMEC; protein concentration 0.006 µM
  percentage of EdU-negative: 5.16 ± 0.29%
hTERT-HMEC; protein concentration 0.06 µM
  percentage of EdU-negative: 4.77 ± 0.11%

## MLLPLLLLLPMCWAVEVKRPRGVSLTNHHFYDESKPFTCLDGSATIPFDQVNDDYCDCKDGSDEPGTAACPNGSFHCTNTGYKPLYIPSNRVNDGVCDCCDGTDEYNSGVICENTCKEKGRKERESLQQMAEVTREGFRLKKILIEDWKKAREEKQKKLIELQAGKKSLEDQVEMLRTVKEEAEKPEREAKEQHQKLWEEQLAAAKAQQEQELAADAFKELDDDMDGTVSVTELQTHPELDTDGDGALSEAEAQALLSGDTQTDATSFYDRVWAAIRDKYRSEALPTDLPAPSAPDLTEPKEEQPPVPSSPTEEEEEEEEEEEEEAEEEEEEEDSEEAPPPLSPPQPASPAEEDKMPPYDEQTQAFIDAAQEARNKFEEAERSLKDMEESIRNLEQEISFDFGPNGEFAYLYSQCYELTTNEYVYRLCPFKLVSQKPKLGGSPTSLGTWGSWIGPDHDKFSAMKYEQGTGCWQGPNRSTTVRLLCGKETMVTSTTEPSRCEYLMELMTPAACPEPPPEAPTEDDHDEL
MCF7; [2]
  percentage of EdU-negative: 27.5 ± 0.87%
MCF7; [3]
  percentage of EdU-negative: 24.9 ± 0.62%
hTERT-HMEC; [2]
  percentage of EdU-negative: 5.19 ± 1.2%
hTERT-HMEC; [3]
  percentage of EdU-negative: 5.7 ± 0.68%
